Bridge positions count the residues as written; N and C are the ends. Ends that are not written are not given here. COCH2 = acetyl group that carries the bridge
B1: cyclic peptide SEQ ID NO: 212 (peptide)
peptide: YCEENYLYPEQYQYFIYFK(COCH2)Y
modifications: thioether 2-19 (inferred)
B2: cyclic peptide SEQ ID NO: 231 (peptide)
peptide: YCEENYLDTEQYQYFIYFK(COCH2)Y
modifications: thioether 2-19 (inferred)
B3: cyclic peptide SEQ ID NO: 242 (peptide)
peptide: YCEENYLDPYQYQYFIYFK(COCH2)Y
modifications: thioether 2-19 (inferred)
B4: cyclic peptide SEQ ID NO: 235 (peptide)
peptide: YCEENYLDHEQYQYFIYFK(COCH2)Y
modifications: thioether 2-19 (inferred)
B5: cyclic peptide SEQ ID NO: 215 (peptide)
peptide: YCEENYLQPEQYQYFIYFK(COCH2)Y
modifications: thioether 2-19 (inferred)
B6: cyclic peptide SEQ ID NO: 220 (peptide)
peptide: YCEENYLHPEQYQYFIYFK(COCH2)Y
modifications: thioether 2-19 (inferred)
B7: cyclic peptide SEQ ID NO: 218 (peptide)
peptide: YCEENYLEPEQYQYFIYFK(COCH2)Y
modifications: thioether 2-19 (inferred)
B8: cyclic peptide SEQ ID NO: 216 (peptide)
peptide: YCEENYLSPEQYQYFIYFK(COCH2)Y
modifications: thioether 2-19 (inferred)
B9: cyclic peptide SEQ ID NO: 234 (peptide)
peptide: YCEENYLDREQYQYFIYFK(COCH2)Y
modifications: thioether 2-19 (inferred)
B10: cyclic peptide SEQ ID NO: 239 (peptide)
peptide: YCEENYLDPIQYQYFIYFK(COCH2)Y
modifications: thioether 2-19 (inferred)
B11: cyclic peptide SEQ ID NO: 249 (peptide)
peptide: YCEENYLDPRQYQYFIYFK(COCH2)Y
modifications: thioether 2-19 (inferred)
B12: cyclic peptide SEQ ID NO: 223 (peptide)
peptide: YCEENYLDIEQYQYFIYFK(COCH2)Y
modifications: thioether 2-19 (inferred)
B13: cyclic peptide SEQ ID NO: 228 (peptide)
peptide: YCEENYLDNEQYQYFIYFK(COCH2)Y
modifications: thioether 2-19 (inferred)
B14: cyclic peptide SEQ ID NO: 213 (peptide)
peptide: YCEENYLWPEQYQYFIYFK(COCH2)Y
modifications: thioether 2-19 (inferred)
B15: cyclic peptide SEQ ID NO: 236 (peptide)
peptide: YCEENYLDPGQYQYFIYFK(COCH2)Y
modifications: thioether 2-19 (inferred)
B16: cyclic peptide SEQ ID NO: 247 (peptide)
peptide: YCEENYLDPTQYQYFIYFK(COCH2)Y
modifications: thioether 2-19 (inferred)
B17: cyclic peptide SEQ ID NO: 248 (peptide)
peptide: YCEENYLDPDQYQYFIYFK(COCH2)Y
modifications: thioether 2-19 (inferred)
B18: cyclic peptide SEQ ID NO: 245 (peptide)
peptide: YCEENYLDPQQYQYFIYFK(COCH2)Y
modifications: thioether 2-19 (inferred)
B19: cyclic peptide SEQ ID NO: 250 (peptide)
peptide: YCEENYLDPHQYQYFIYFK(COCH2)Y
modifications: thioether 2-19 (inferred)
B20: cyclic peptide SEQ ID NO: 230 (peptide)
peptide: YCEENYLDSEQYQYFIYFK(COCH2)Y
modifications: thioether 2-19 (inferred)
B21: cyclic peptide SEQ ID NO: 227 (peptide)
peptide: YCEENYLDWEQYQYFIYFK(COCH2)Y
modifications: thioether 2-19 (inferred)
B22: cyclic peptide SEQ ID NO: 244 (peptide)
peptide: YCEENYLDPNQYQYFIYFK(COCH2)Y
modifications: thioether 2-19 (inferred)
B23: cyclic peptide SEQ ID NO: 233 (peptide)
peptide: YCEENYLDEEQYQYFIYFK(COCH2)Y
modifications: thioether 2-19 (inferred)
B24: cyclic peptide SEQ ID NO: 219 (peptide)
peptide: YCEENYLRPEQYQYFIYFK(COCH2)Y
modifications: thioether 2-19 (inferred)
B25: cyclic peptide SEQ ID NO: 229 (peptide)
peptide: YCEENYLDQEQYQYFIYFK(COCH2)Y
modifications: thioether 2-19 (inferred)
B26: cyclic peptide SEQ ID NO: 221 (peptide)
peptide: YCEENYLDGEQYQYFIYFK(COCH2)Y
modifications: thioether 2-19 (inferred)
B27: cyclic peptide SEQ ID NO: 232 (peptide)
peptide: YCEENYLDDEQYQYFIYFK(COCH2)Y
modifications: thioether 2-19 (inferred)
B28: cyclic peptide SEQ ID NO: 237 (peptide)
peptide: YCEENYLDPPQYQYFIYFK(COCH2)Y
modifications: thioether 2-19 (inferred)
B29: cyclic peptide SEQ ID NO: 243 (peptide)
peptide: YCEENYLDPWQYQYFIYFK(COCH2)Y
modifications: thioether 2-19 (inferred)
B30: cyclic peptide SEQ ID NO: 241 (peptide)
peptide: YCEENYLDPFQYQYFIYFK(COCH2)Y
modifications: thioether 2-19 (inferred)
B31: cyclic peptide SEQ ID NO: 225 (peptide)
peptide: YCEENYLDFEQYQYFIYFK(COCH2)Y
modifications: thioether 2-19 (inferred)
B32: cyclic peptide SEQ ID NO: 226 (peptide)
peptide: YCEENYLDYEQYQYFIYFK(COCH2)Y
modifications: thioether 2-19 (inferred)
B33: cyclic peptide SEQ ID NO: 224 (peptide)
peptide: YCEENYLDVEQYQYFIYFK(COCH2)Y
modifications: thioether 2-19 (inferred)
B34: cyclic peptide SEQ ID NO: 238 (peptide)
peptide: YCEENYLDPLQYQYFIYFK(COCH2)Y
modifications: thioether 2-19 (inferred)
B35: cyclic peptide SEQ ID NO: 240 (peptide)
peptide: YCEENYLDPVQYQYFIYFK(COCH2)Y
modifications: thioether 2-19 (inferred)
B36: cyclic peptide SEQ ID NO: 222 (peptide)
peptide: YCEENYLDLEQYQYFIYFK(COCH2)Y
modifications: thioether 2-19 (inferred)
B37: cyclic peptide SEQ ID NO: 246 (peptide)
peptide: YCEENYLDPSQYQYFIYFK(COCH2)Y
modifications: thioether 2-19 (inferred)
B38: cyclic peptide SEQ ID NO: 214 (peptide)
peptide: YCEENYLNPEQYQYFIYFK(COCH2)Y
modifications: thioether 2-19 (inferred)
B39: cyclic peptide SEQ ID NO: 217 (peptide)
peptide: YCEENYLTPEQYQYFIYFK(COCH2)Y
modifications: thioether 2-19 (inferred)

Molecular target: T1, Recombinant Human FGFR2 alpha (IIIc) Fc Chimera Protein, CF (R&D systems, 712-FR-050) (human, UniProt P21802 22-377)
T1 construct: bought; not shown: Fc part of the chimera
Assay: ELISA on plate-bound FGFR2-Fc
Method: First, 5 ng of Recombinant Human FGFR2 alpha (IIIc) Fc Chimera Protein (R&D systems, 712-FR-050) was immobilized in each well of a 96-well plate, and blocked with Pierce Protein-Free (PBS) Blocking Buffer (Thermo, 37572), and a peptide diluted with Can Get Signal Immunoreaction Enhancer Solution I (TOYOBO, NKB-101) was then added and reacted at room temperature for 3 hours. After washing with 0.05% Tween 20-containing phosphate buffered saline (PBS), an anti-Myc antibody (Cell Signaling, 14038S) diluted with Can Get Signal Immunoreaction Enhancer Solution II (TOYOBO, NKB-101) was added and reacted at room temperature for 2 hours. After washing with 0.05% Tween 20-containing PBS, SuperSignal ELISA Femto Substrate (Thermo, 37075) was added, and the luminescence amount was measured. The dose-response relationship was calculated from using the difference between the luminescence amount in the well in which FGFR was immobilized and the luminescence amount in the well in which FGFR was not immobilized, and the concentration of the peptide at the time of reaction, and the binding affinity to FGFR was evaluated according to the following evaluation criteria. The evaluation result preferably satisfies the evaluation criteria A, B, or C.

T1 sequence (P21802 22-377, change not shown): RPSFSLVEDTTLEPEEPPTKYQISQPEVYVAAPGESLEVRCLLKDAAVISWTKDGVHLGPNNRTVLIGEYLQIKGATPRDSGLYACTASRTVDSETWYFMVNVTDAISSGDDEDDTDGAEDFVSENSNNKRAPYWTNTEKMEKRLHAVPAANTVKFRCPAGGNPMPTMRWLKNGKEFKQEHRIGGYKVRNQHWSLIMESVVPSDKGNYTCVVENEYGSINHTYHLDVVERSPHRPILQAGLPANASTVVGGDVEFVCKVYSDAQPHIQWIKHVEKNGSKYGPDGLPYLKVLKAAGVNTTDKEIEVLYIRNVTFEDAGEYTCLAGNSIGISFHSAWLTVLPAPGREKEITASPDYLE

Binder	ELISA luminescence signal at 10 nmol/L peptide, relative to SEQ ID NO: 47 (=1) [ratio]
B1	≥ 0.7
B2	≥ 0.7
B3	≥ 0.7
B4	≥ 0.7
B5	≥ 0.7
B6	≥ 0.7
B7	≥ 0.7
B8	≥ 0.7
B9	≥ 0.7
B10	≥ 0.7
B11	≥ 0.7
B12	≥ 0.7
B13	≥ 0.7
B14	0.5 to 0.7
B15	0.1 to 0.5
B16	≥ 0.7
B17	≥ 0.7
B18	≥ 0.7
B19	≥ 0.7
B20	≥ 0.7

Binder	ELISA luminescence signal at 10 nmol/L peptide, relative to SEQ ID NO: 47 (=1) [ratio]
B21	≥ 0.7
B22	≥ 0.7
B23	≥ 0.7
B24	0.1 to 0.5
B25	≥ 0.7
B26	≥ 0.7
B27	≥ 0.7
B28	≥ 0.7
B29	≥ 0.7
B30	≥ 0.7
B31	≥ 0.7
B32	≥ 0.7
B33	≥ 0.7
B34	≥ 0.7
B35	≥ 0.7
B36	≥ 0.7
B37	≥ 0.7
B38	≥ 0.7
B39	≥ 0.7

Source: patent publication US20260008815A1, “CYCLIC PEPTIDE OR SALT THEREOF, AND USES THEREOF” (FUJIFILM Corporation, priority 2023, published 2026)
